Average fluorescence intensity, seed minus background and average fluorescence intensity, extension minus background data for one substance are collected here from article PMC2761489.

Assay [1] has as its target GMPCPP microtubules (GMPCPP-tubulin microtubule lattice; seeds and GMPCPP-grown extensions) of porcine brain tubulin (porcine) (UniProt P02550). Nature of the assay: two-color TIRF microscopy; GMPCPP seeds immobilised on coverslips (biotin-neutravidin or anti-rhodamine antibodies); 50 nM EB1-GFP with 12 uM free tubulin (10-24 uM in other runs) and 1 mM GTP in Imaging Buffer (BRB80, glucose, glucose-oxidase, catalase, casein, beta-mercaptoethanol), no additional salt; 35 C.

For assay [2], the target named is Microtubule extensions grown from free porcine brain tubulin with GTP (GDP-tubulin lattice with growing ends) (porcine) (UniProt P02550). The description is as above.

Regarding “C-terminus GFP-tagged EB1 (from UniProt Q15691 1-268) (natural protein)”, in assay [1], the average fluorescence intensity, seed minus background turned out to be 62.6 AU. In addition, the average fluorescence intensity, extension minus background in assay [2] is 12.8 AU.
